Measurements as given in PMC8649396.
Blank lines part the entries; values can stand above or below the substance they belong to.

Columns and labels:
[1] = biological target: His-tagged phthalate dioxygenase from Comamonas testosteroni KF1 (Ht-PDOKF1) (Comamonas testosteroni KF1); assay: SEC
[2] = biological target: Phthalate dioxygenase from Comamonas testosteroni KF1 (PDOKF1), as crystallised (Comamonas testosteroni KF1); assay: crystal structure
[3] = biological target: Rieske oxygenase from Cupriavidus metallidurans CH34 (RO_CH34) (Cupriavidus metallidurans CH34); assay: SEC
[4] = biological target: Rieske oxygenase from Cupriavidus metallidurans CH34 (RO_CH34) (Cupriavidus metallidurans CH34); assay: crystal structure

stoichiometry N [1]: 6
Substance: His-tagged phthalate dioxygenase from Comamonas testosteroni KF1 (Ht-PDOKF1) (enzyme)

stoichiometry N [2]: 6
Substance: Phthalate dioxygenase from Comamonas testosteroni KF1 (PDOKF1), as crystallised (enzyme)

stoichiometry N [3]: 3
stoichiometry N [4]: 3
Substance: Rieske oxygenase from Cupriavidus metallidurans CH34 (RO_CH34) (enzyme)
